Experimental data published in US6303357A, “L-α-glycerophosphate oxidase gene, recombinant DNA, and method for producing modified L-α-glycerophosphate oxidase gene” (priority 2000, dated 2001).

Experiments:
Format in all cases: biochemical, Enterococcus faecium
O=P(O)(O)OCC(O)CO [1] = assay: Km value of modified GPO Phe 130/Ala 225; conditions: other: Phe 130, Ala 225, 37° C., pH 7.0 activity assay
Experimental: (§1) According to the invention, method for the measurement GPO activity is as follows unless otherwise noted.
(§2) 300 mM Sodium (±)-1-glycerophosphate n-hydrate
(§3) A 1.0 ml portion of a reaction solution having the above composition is put into a test tube and subjected to 5 minutes of preliminary incubation at 37° C., and then 20 μl of an enzyme solution is added thereto to carry out 5 minutes of the reaction at 37° C. After the reaction, 2.0 ml of 0.5% SDS solution is added to terminate the reaction, and calorimetric determination is carried out at a wavelength of 600 nm. An activity capable of forming 1 μmole of hydrogen peroxide within 1 minute was defined as 1 unit (U). [formula]
(§4) The resulting cells were collected by centrifugation, washed with 10 mM Tris-HCl buffer (pH 8.0) containing 0.1 M sodium chloride and 1 mM EDTA and then suspended in a solution prepared by adding 1 mg/ml of lysozyme to 50 mM potassium phosphate buffer (pH 7.0) containing 10 mM EDTA and 0.1% Triton X-100, subsequently carrying out 2 hours of cell lysis at 4° C. After the cell lysis, this was subjected to ultrasonic disintegration and then centrifuged, and the supernatant was used as the enzyme solution to measure its enzyme activity, heat resistance and Km value.
(§5) In addition, improvement of two or more properties was found by a combination of these mutations. […]

O=P(O)(O)OCC(O)CO [2] = assay: Km value of modified GPO Ala 225/Gly 420; conditions: other: Ala 225, Gly 420, 37° C., pH 7.0 activity assay
Experimental: as §1, §2, §3, §4, §5

O=P(O)(O)OCC(O)CO [3] = assay: Km value of GPO (wild type control, E. coli DH5/pGPO97); conditions: other: wild type GPO, 37° C., pH 7.0 activity assay
Experimental: as §1, §2, §3, §4, §5

Substance: Enterococcus faecium No. 7044 L-α-glycerophosphate oxidase (GPO) variant Phe 130/Ala 225 (Enterococcus faecium DO; L137F/L267F/S362A)
- Km (O=P(O)(O)OCC(O)CO [1]): 4.6 mM

Substance: Enterococcus faecium No. 7044 L-α-glycerophosphate oxidase (GPO) variant Ala 225/Gly 420 (Enterococcus faecium DO; D212G/D427G/S17A)
- Km (O=P(O)(O)OCC(O)CO [2]): 28.8 mM

Substance: Enterococcus faecium No. 7044 L-α-glycerophosphate oxidase (GPO), wild type, Sequence No. 1 (Enterococcus faecium DO)
- Km (O=P(O)(O)OCC(O)CO [3]): 23.2 mM
